# Reference: PMC7642682, “SPOR Proteins Are Required for Functionality of Class A Penicillin-Binding Proteins in Escherichia coli” (mBio, 2020)
# T1: penicillin-binding protein 1A (PBP1A) (Escherichia coli, UniProt P02918 1-850)
# T1 sequence (looked up): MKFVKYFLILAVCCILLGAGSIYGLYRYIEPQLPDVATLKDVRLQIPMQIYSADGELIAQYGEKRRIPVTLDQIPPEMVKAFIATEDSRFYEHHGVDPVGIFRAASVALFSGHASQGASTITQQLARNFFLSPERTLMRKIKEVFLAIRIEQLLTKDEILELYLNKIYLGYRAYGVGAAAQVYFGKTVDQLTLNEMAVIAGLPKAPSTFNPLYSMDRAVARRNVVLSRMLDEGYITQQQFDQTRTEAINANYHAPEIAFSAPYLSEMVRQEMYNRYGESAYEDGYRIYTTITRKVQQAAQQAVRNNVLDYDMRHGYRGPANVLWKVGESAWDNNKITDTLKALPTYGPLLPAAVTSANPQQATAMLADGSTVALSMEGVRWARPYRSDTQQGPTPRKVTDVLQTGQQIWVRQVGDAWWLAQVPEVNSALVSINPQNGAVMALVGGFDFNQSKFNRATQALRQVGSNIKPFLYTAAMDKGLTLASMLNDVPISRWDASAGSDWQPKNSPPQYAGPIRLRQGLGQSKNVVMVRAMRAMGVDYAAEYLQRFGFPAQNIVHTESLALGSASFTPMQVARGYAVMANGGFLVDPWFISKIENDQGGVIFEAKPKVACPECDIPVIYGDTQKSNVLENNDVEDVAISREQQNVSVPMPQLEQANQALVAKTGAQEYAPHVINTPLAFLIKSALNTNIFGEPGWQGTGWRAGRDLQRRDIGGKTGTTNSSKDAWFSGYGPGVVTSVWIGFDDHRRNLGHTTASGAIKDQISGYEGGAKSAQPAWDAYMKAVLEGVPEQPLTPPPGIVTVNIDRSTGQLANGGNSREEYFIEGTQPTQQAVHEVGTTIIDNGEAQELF
# T2: penicillin-binding protein 1B (PBP1B) (Escherichia coli, UniProt P02919 1-844)
# T2 sequence (looked up): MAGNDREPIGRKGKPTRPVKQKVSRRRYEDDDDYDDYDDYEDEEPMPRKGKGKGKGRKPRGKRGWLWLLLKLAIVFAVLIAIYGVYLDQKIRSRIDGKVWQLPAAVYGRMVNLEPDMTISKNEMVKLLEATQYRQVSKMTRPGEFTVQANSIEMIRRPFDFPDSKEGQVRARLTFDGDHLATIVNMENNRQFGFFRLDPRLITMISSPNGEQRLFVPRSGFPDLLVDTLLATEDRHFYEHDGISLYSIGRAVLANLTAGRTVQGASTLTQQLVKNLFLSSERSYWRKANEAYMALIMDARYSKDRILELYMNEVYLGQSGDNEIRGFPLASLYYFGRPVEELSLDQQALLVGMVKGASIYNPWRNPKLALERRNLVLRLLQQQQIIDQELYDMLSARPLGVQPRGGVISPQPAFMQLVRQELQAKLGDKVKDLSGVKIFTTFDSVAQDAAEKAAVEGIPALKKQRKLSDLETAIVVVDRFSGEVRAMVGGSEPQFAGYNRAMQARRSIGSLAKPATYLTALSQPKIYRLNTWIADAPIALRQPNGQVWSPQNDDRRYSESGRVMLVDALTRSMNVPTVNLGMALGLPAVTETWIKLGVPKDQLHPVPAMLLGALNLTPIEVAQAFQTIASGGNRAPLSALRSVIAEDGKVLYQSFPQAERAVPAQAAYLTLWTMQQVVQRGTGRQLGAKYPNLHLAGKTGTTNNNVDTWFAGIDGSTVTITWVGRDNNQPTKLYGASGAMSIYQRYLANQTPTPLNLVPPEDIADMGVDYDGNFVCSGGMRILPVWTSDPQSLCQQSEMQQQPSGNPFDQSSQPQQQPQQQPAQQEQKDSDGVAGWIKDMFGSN
# Experiments:
# [1] = biological target: T1, penicillin-binding protein 1A (PBP1A); assay: cell-based or functional assay
# [2] = biological target: T2, penicillin-binding protein 1B (PBP1B); assay: cell-based or functional assay
binder,measurement,setting,value
"His-DedD (natural protein, Escherichia coli, UniProt P09549 1-220, looked up) MASKFQNRLVGTIVLVALGVIVLPGLLDGQKKHYQDEFAAIPLVPKAGDRDEPDMMPAATQALPTQPPEGAAEEVRAGDAAAPSLDPATIAANNTEFEPEPAPVAPPKPKPVEPPKPKVEAPPAPKPEPKPVVEEKAAPTGKAYVVQLGALKNADKVNEIVGKLRGAGYRVYTSPSTPVQGKITRILVGPDASKDKLKGSLGELKQLSGLSGVVMGYTPN","GTase rate of PBP1A (consumption of fluorescent dansyl-lipid II), fold over PBP1A alone; 0.5 uM PBP1A, 2 uM purified DedD",[1],1.8 fold
same,"GTase rate of PBP1B (consumption of fluorescent dansyl-lipid II), fold over PBP1B alone; 0.5 uM PBP1B, 2 uM purified DedD",[2],2.6 fold
"His-DamX (natural protein, Escherichia coli, UniProt P11557 1-428, looked up) MDEFKPEDELKPDPSDRRTGRSRQSSERSERTERGEPQINFDDIELDDTDDRRPTRAQKERNEEPEIEEEIDESEDETVDEERVERRPRKRKKAASKPASRQYMMMGVGILVLLLLIIGIGSALKAPSTTSSDQTASGEKSIDLAGNATDQANGVQPAPGTTSAENTQQDVSLPPISSTPTQGQTPVATDGQQRVEVQGDLNNALTQPQNQQQLNNVAVNSTLPTEPATVAPVRNGNASRDTAKTQTAERPSTTRPARQQAVIEPKKPQATVKTEPKPVAQTPKRTEPAAPVASTKAPAATSTPAPKETATTAPVQTASPAQTTATPAAGAKTAGNVGSLKSAPSSHYTLQLSSSSNYDNLNGWAKKENLKNYVVYETTRNGQPWYVLVSGVYASKEEAKKAVSTLPADVQAKNPWAKPLRQVQADLK","GTase rate of PBP1B (consumption of fluorescent dansyl-lipid II), fold over PBP1B alone; 0.5 uM PBP1B, 2 uM purified DamX",[2],2 fold
